Laboratory results published in publication PMC5558740.

Target: CX3CR1 2-21 (UniProt P49238)
Assay: affinity chromatography on CX3CR1 peptide-Sepharose, dot blot
Details: reference: Tau42 not phosphorylated; sites S396

Chain of CX3CR1 2-21 (P49238 whole entry, looked up, tested part not stated): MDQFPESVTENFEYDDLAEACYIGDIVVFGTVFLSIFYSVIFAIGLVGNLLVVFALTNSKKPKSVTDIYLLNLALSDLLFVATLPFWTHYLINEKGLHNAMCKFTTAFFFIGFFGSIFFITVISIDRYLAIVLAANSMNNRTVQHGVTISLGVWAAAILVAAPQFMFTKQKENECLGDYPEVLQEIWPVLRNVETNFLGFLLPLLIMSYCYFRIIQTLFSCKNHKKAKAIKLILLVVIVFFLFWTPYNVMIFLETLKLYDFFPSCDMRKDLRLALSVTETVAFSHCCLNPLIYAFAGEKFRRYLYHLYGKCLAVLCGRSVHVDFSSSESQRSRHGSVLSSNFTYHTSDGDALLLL

- other: elution fraction number: weaker; reference 4
Substance: Tau (Tau42) (from UniProt P10636-8) Tau42 phosphorylated by GSK-3β
